The results in this text go back to patent US6881824B1, “Peptides suitable for use in antigen specific immunosuppressive therapy” (Akzo Nobel N.V., priority 1996, dated 2005).

What is called IC50 is the concentration at which inhibition is half-maximal. Read a high IC50 as a need for much substance.

Ends that are not written are not given here.

Assay [1] concerns Balb/c mouse. Description: HC gp-39 administration in Balb/c mice (arthritis). The class given is in vivo. The conditions noted are these: administration of HC gp-39.
The target of assay [2] is T1, DR4 (DRB1*0401) molecules (Homo sapiens, UniProt P01903+P01911, A100K/A169T/F76Y/I96L/K127E/L162R/M171V/N62H/P40V/Q125Y/R42H/S133A/S149N/S66Y/V115G/V209L/W38E).
T1 construct: molecules were purified from the homozygous EBV-transformed human B lymphoblastoid cell lines Huly138IC2 and BM92 using the mAb; endogenous in cells
In words: Peptide HLA-DR binding assay (semi-quantitative competition binding). The following applies: for IC50: competition with biotinylated marker peptide HA 309 Y→F, pH5.0, 44 hr RT. The method in brief: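 HLA-DR from EBV B-cell lines (30 nM DRB1*0401 or 15 nM DRB1*0404) incubated 44 h at RT, pH 5.0, with 50 nM biotinylated HA 309 Y→F marker peptide and competitor peptide range. Bound marker captured on nitrocellulose, detected by streptavidin-HRP ECL; IC50 = concentration giving 50% signal reduction.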

Assay [3] concerns PBMC from RA patients carrying the DR4 (DRB1*0401) specificity. Description: Peptide-induced proliferative responses of PBMC from RA patients. The format is cell-based, human. The method in brief:
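PBMC (1,5×10^5/well) from 7 DRB1*0401-positive RA patients were cultured 7 days in 10% autologous plasma with overlapping 16-mer HC gp-39 peptides at 10 or 100 μg/ml, sometimes as sets of 2–3 peptides. [3H]thymidine pulse over the final 18 h; positive when stimulation index ≥2 at both concentrations.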

The test system of assay [4] is PBMC from healthy donors carrying the DR4 (DRB1*0401) specificity. In words: Peptide-induced proliferative responses of PBMC from healthy donors. The format is cell-based, human. The method, then:
Peripheral blood samples from 5 healthy donors carrying the DR4(DRB1*0401) specificity were obtained with informed consent and included in this study as a control.
(§1) In order to identify T-cell epitopes within HC gp-39, 59 peptides of 16 AA in length, overlapping by 10 AA were tested for their capacity to induce a proliferative response in PBMC from RA patients and healthy controls carrying the DR4 (DRB1*0401) specificity (Table 1).
(§2) PBMC obtained from heparinized venous peripheral blood were isolated by standard centrifugation on a Ficoll-Paque gradient. Cells were cultured in four-fold at a concentration of 1,5×10^5 cells/well in medium supplemented with 10% heat-inactivated, autologous plasma, L-glutamine, 2-ME and antibiotics in flatbottomed microtiter plates. Cells were incubated in medium alone or in the presence of phytohaemagglutinin (PHA) (2:5 μg/ml) to assert cell viability, or in the presence of 10 or 100 μg/ml of the HC gp-39-derived peptides. In several cases, sets of 2 or 3 sequential peptides were tested due to limited PBMC numbers of individual donors. Cultures were incubated in a total volume of 210 μl for 7 days at […] in a humidified atmosphere of 5% CO2. Cultures were pulsed during the last 18 hours with 0.25 μCi ^3H-thymidine ([^3H]TdR). Cells were harvested on glassfiber filters and [^3H] TdR incorporation was measured by gas scintillation (Packard Matrix 96 βcounter). Only peptides inducing a proliferative response at both 10 and 100 μg/ml were considered to contain a T-cell epitope. Responses were defined positive if stimulation index values (SI, antigen-specific counts per 5 min (cp5 m)/background cp5 m) exceeded or equaled 2.
(§3) T-cell reactivity to HC gp-39-derived peptide as analyzed by measuring the PBMC proliferative response in DR4 (DRB1*0401)-positive RA patients and healthy donors. Proliferative responses were tested in autologous plasma. In Table IIIA and IIIB the results of 7 experiments are presented showing the responses of RA patients (Table IIIA) and the responses of healthy donors (Table IIIB) to 59 overlapping sequences derived from HC gp-39.

For assay [5], the system named is PBMC from RA patients and healthy controls carrying the DR4 (DRB1*0401) specificity. In words: Proliferative responses of blood mononuclear cells, RA patients and healthy donors taken together. The format is cell-based, human. The following applies: individual peptides; any donor. The method, then:
as §1, §2, §3

Assay [6] concerns the target T2, DR4 (DRB1*0401) molecules purified from the homozygous EBV-transformed human B lymphoblastoid cell line … (human, UniProt P01903 26-254).
The target of assay [7] is T2, DR4 (DRB1*0401) molecules purified from …. Description: competition binding assay on purified DR4(DRB1*0401).

Turning to “Human Cartilage glycoprotein 39 [HC gp-39]”, in assay [1], the Arthritic development result is reported as “delayed and/or suppressed arthritic development” and the Immunological tolerance entry is “resulted in immunological tolerance”.

As to “YKLVCYYTSWSQYREG [peptide 1, YKLVCYYTSWSQYREG]”, in assay [2], the “Relative affinity of binding to DR4 (DRB1*0401), in words” value is listed as “relatively high affinity”. In addition, the IC50 in assay [2] (Table IIIA) and in assay [2] (Table IIIB) was less than 1000 nM in each case. Further, the “Peptide-induced proliferative response of PBMC, RA 272” value in assay [3] (RA patient 272, 0401, R, 100 and 10 microgram/ml, 7 days, 3H-thymidine incorporation) is “pos (positive responses to both 100 and 10 microgram/ml of peptide or sets of peptides (SI≧2 were regarded positive))”. Also, the “Response of PBMC from RA patient 272 to individual peptides, in words” value in assay [3] (RA patient 272, individual peptides) is “appeared to respond”. For the same molecule, in assay [4] (healthy donor 230), the “Presence of T-cell epitopes confirmed by PBMC of healthy donor 230” value is recorded as “confirmed the presence of T-cell epitopes”. Also, the “Peptide-induced proliferative response of PBMC, HD 230” value in assay [4] (healthy donor 230, 0401, R, 100 and 10 microgram/ml, 7 days, 3H-thymidine incorporation) was “pos (positive responses to both 100 and 10 microgram/ml of peptide or sets of peptides (SI>2 were regarded positive))”. Further, the “Responses to the individual peptides (PBMC proliferation), identifying T-cell epitopes” value in assay [5] is “observed in one or more donors”.

FSKIASNTQSRRTFIK (This is probably a misprint) [HC gp-39 peptide 15 (residues 106-121)] showed an IC50 in assay [6] of less than 1000 nM. In addition, in assay [7], the binding result was “binds”.

Molecule QHLDFISIMTYDFHGA [HC gp-39 peptide 30 (residues 196-211)] yielded a 50% inhibitory concentration (IC50) in assay [6] of less than 1000 nM. Also, the binding result in assay [7] was “binds”.

Take DYAVGYMLRLGAPASK [HC gp-39 peptide 37 (residues 238-253)]: the IC50 in assay [6] is less than 1000 nM. The binding result in assay [7] was “binds”.

As to YKLVCYYTSWSQYREG [HC gp-39 peptide 1 (residues 22-37)], the IC50 in assay [6] was less than 1000 nM. The binding result in assay [7] is “binds”.

Molecule LDRFLCTHIIYSFANI [HC gp-39 peptide 5 (residues 46-61)] showed an IC50 in assay [6] of less than 1000 nM. The binding result in assay [7] is recorded as “binds”.

TFIKSVPPFLRTHGFD [HC gp-39 peptide 17 (residues 118-133)] came in with an IC50 in assay [6] of 1000 to 10000 nM. For the same molecule, the binding result in assay [7] is “binds”.

THIIYSFANISNDHID [HC gp-39 peptide 6 (residues 52-67)] displayed a half-inhibitory concentration (IC50) in assay [6] of less than 1000 nM. The binding result in assay [7] is “binds”.

In the case of DFQGSFCGQDLRFPLT [HC gp-39 peptide 57 (residues 358-373)], in assay [6], the IC50 was 1000 to 10000 nM. In assay [7], the binding result is reported as “binds”.

As to SCFPDALDRFLCTHII [HC gp-39 peptide 4 (residues 40-55)], in assay [6], the IC50 is 10000 to 100000 nM. Further, the binding result in assay [7] is reported as “binds”.

On to YLKDRQLAGAMVWALD [HC gp-39 peptide 54 (residues 340-355)], for which the IC50 in assay [6] is less than 1000 nM. In assay [7], the binding result is reported as “binds”.
